In assay [1] the target is T1, FcγRI (CD64), on cells (UniProt P12314 16-374, limits assumed).
T1 construct: whole, on cells
The assay is described as follows: cell-based or functional assay.

In assay [2] the target is T2, FcγRIIIa (CD16), on cells (UniProt P08637 17-254, limits assumed).
T2 construct: whole, on cells; also called CD16A
As to the kind of experiment: flow cytometry on CD16A-expressing cells, mean fluorescence intensity; concentration not given.

Assay [3] concerns the target T3, FcγRIIa-R131 (CD32, arginine at position 131), on cells (human, UniProt P12318 34-317).
T3 construct: whole, on cells; A database entry may carry H at that site, so the arginine must be set by hand; also called FcγRIIa-R131 allotype; IIA1.6 FcγRIIa-R131 transfectants
T3 sequence (looked up): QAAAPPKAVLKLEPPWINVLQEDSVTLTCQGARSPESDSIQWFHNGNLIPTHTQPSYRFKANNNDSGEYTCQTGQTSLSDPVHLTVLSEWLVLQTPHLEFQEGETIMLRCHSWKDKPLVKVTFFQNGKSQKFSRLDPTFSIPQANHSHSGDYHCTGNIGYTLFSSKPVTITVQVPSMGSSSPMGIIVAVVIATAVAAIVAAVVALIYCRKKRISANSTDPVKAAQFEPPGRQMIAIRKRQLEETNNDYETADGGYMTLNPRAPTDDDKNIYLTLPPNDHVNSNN
As to the kind of experiment: flow cytometry on transfected cells, mean fluorescence intensity; antibody concentration not given. (In general: In flow cytometry, cells or beads pass a laser one at a time.)

The target of assay [4] is T4, CD20 (human, UniProt P11836).
T4 construct: full length, on cells; also called CD20 on cells; Raji cells expressing CD20
T4 sequence (membrane protein on cells, looked up): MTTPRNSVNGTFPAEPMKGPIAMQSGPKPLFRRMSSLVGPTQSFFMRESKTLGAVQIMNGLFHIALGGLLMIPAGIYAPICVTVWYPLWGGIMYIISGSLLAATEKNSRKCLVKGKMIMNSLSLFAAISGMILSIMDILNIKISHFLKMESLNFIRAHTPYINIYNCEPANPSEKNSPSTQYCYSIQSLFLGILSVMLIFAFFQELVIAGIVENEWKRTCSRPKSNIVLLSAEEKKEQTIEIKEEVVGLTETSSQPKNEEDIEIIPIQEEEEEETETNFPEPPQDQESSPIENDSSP
As to the kind of experiment: flow cytometry on CD20-expressing cells, mean fluorescence intensity; concentration not given.

Assay [5] has as its target T5, FcαR (CD89), on transfected IIA1.6 cells (UniProt P24071 22-287, limits assumed).
T5 construct: whole, on cells; also called Fcα receptor; FcαRI
The assay is described as follows: flow cytometry on CD89-transfected cells, mean fluorescence intensity; concentration not given.

For assay [6], the target named is T1, FcγRI (CD64), on cells. The assay is described as follows: flow cytometry on CD64-expressing cells, mean fluorescence intensity; concentration not given.

T1 sequence (P12314 16-374 limits assumed): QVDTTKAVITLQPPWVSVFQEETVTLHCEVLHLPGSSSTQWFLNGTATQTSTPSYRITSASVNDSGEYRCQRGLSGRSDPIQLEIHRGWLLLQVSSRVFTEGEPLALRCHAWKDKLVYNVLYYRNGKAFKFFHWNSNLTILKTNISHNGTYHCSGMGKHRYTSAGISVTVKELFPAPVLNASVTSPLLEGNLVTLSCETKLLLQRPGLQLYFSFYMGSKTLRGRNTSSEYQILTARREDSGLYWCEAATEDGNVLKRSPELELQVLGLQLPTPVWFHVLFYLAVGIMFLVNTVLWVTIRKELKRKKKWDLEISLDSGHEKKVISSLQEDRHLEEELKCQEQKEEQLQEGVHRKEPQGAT
T2 sequence (P08637 17-254 limits assumed): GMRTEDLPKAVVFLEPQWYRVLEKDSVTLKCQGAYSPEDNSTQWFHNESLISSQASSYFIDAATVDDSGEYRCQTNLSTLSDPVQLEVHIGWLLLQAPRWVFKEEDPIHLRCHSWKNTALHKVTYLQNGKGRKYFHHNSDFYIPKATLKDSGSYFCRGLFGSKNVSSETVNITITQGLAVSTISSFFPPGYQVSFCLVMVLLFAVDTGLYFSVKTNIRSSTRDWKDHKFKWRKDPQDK
T5 sequence (P24071 22-287 limits assumed): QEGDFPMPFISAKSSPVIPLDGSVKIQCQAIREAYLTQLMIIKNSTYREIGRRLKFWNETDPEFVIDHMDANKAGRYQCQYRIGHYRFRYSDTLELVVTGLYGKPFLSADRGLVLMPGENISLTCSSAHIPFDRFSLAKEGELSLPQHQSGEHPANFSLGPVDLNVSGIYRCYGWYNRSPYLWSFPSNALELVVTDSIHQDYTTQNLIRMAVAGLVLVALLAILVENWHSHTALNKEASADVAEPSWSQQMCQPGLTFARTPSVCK

As for humanized CD64 mAb H22 (antibody), in assay [1], the reduction of FcγRI membrane expression worked out at 60%.

B1: human monoclonal antibody MDE-8 (whole IgG) (antibody, V domains shown)
VH: QVHLVESGGGVVQPGRSLRLSCAASGFTFSSYGMHWVRQAPGKGLEWVAVIWYDGSNYYYTDSVKGRFTISRDNSKNTLYLQMNSLRAEDTAVYYCARDLGAAASDYWGQGTLVTVSS
VL: AIQLTQSPSSLSASVGDRVTITCRASQGINSALAWYQQKPGKAPKLLIYDASSLESGVPSRFSGSGSGTDFTLTISSLQPEDFATYYCQQFNSYPHTFGQGTKLEIK
notes: Hybridoma-derived fully human IgG, kappa from HuMab HCo7 mice; a human IgG1 mAb served as its isotype control; also called HuMAb MDE-8; MDE-8 IgG
Take B1: the binding result in assay [2] is recorded as “no binding”; in assay [3] it was “binds”; in assay [4] it was “no binding”; in assay [5], “no binding”; in assay [6] it was “no binding”.

For the origin of these results see patent US20070253958A1 (Bristol-Myers Squibb, published 2007).
